According to patent publication US20170165342A1 (VIRGINIA COMMONWEALTH UNIVERSITY, published 2017):
Where “and” joins values, the source holds several entries; their conditions need not be identical. Equal values may be shown once.

Tests used:
[1] = molecular target: sLe^x-capped P-selectin glycoprotein ligand-1 (PSGL-1) (UniProt Q14242); experiment: cell-based or functional assay
[2] = molecular target: T1, sLe^x-capped P-selectin glycoprotein ligand-1 (PSGL-1) (UniProt Q14242 42-412, capped with the sialyl Lewis x (sLe^x) O-glycan); experiment: cell-based or functional assay
T1 sequence: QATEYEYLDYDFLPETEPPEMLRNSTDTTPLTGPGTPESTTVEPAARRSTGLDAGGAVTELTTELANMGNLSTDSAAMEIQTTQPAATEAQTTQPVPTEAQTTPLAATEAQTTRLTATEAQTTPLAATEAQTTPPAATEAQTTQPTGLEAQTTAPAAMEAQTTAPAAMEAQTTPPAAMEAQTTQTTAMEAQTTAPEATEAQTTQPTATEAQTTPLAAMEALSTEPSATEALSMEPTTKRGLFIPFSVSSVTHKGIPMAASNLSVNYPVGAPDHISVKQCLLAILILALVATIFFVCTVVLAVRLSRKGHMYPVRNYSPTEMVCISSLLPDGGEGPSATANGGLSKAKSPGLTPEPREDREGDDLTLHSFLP

**Q.** How did the numbers of bound DC organisms per PSGL-1 CHO cell after incubating PSGL-1 CHO cells with KPL-1 (fold reduction) [1] turn out when “KPL-1, PSGL-1 N-terminus-specific antibody” was run?
**A.** Its numbers of bound DC organisms per PSGL-1 CHO cell after incubating PSGL-1 CHO cells with KPL-1 (fold reduction) is 2 and 3.

B1: OmpA (outer membrane protein A) on the surface of A. phagocytophilum DC organisms (other)
chain: CGTLLPDSNVGVGRHDLGSHRSVAFAKKVEKVYFDIGKYDLKGPGKKVILELVEQLRQDDSMYLVVIGHADATGTEEYSLALGEKRANAVKQFIIGCDKSLAPRVTTQSRGKAEPEVLVYSTDAQEVEKANAQNRRAVIVVEFAHIPRSGVADMHAPVASSITSENSNASAEGEDMEASEFSSAIAN
**Q.** For B1, which “bacterial binding to PSGL-1 CHO cells after pretreating bacteria with anti-OmpA” value [2] is on record?
**A.** Its value is about 2 fold reduction.
